Measurements from paper PMC7804152, “Structural basis for the multi-activity factor Rad5 in replication stress tolerance”.

Legend:
KlRad5 [1] = target: T1, KlRad5 (Kluyveromyces lactis, UniProt Q6CJM4 163-1114); experiment: fluorescence polarization; 50 mM NaCl; high affinity, Kd only in figure; FP: 20 mM Tris pH 7.5, 50 mM (dsDNA, KlHIRAN) or 70 mM (ssDNA) NaCl, 2 mM MgCl2, 1 nM DNA, room temp; EMSA: 20 mM Tris pH 7.5, 100 mM KCl, 0.5 mM DTT, 3% glycerol, 2 mM MgCl2, 250 ug/mL BSA, 4 C; pull-down: 20 mM Tris pH 7.5, 50 mM NaCl, 4 C; conditions: protein: recombinant; tags: none; label: 5'-FAM; blunt
T1 sequence: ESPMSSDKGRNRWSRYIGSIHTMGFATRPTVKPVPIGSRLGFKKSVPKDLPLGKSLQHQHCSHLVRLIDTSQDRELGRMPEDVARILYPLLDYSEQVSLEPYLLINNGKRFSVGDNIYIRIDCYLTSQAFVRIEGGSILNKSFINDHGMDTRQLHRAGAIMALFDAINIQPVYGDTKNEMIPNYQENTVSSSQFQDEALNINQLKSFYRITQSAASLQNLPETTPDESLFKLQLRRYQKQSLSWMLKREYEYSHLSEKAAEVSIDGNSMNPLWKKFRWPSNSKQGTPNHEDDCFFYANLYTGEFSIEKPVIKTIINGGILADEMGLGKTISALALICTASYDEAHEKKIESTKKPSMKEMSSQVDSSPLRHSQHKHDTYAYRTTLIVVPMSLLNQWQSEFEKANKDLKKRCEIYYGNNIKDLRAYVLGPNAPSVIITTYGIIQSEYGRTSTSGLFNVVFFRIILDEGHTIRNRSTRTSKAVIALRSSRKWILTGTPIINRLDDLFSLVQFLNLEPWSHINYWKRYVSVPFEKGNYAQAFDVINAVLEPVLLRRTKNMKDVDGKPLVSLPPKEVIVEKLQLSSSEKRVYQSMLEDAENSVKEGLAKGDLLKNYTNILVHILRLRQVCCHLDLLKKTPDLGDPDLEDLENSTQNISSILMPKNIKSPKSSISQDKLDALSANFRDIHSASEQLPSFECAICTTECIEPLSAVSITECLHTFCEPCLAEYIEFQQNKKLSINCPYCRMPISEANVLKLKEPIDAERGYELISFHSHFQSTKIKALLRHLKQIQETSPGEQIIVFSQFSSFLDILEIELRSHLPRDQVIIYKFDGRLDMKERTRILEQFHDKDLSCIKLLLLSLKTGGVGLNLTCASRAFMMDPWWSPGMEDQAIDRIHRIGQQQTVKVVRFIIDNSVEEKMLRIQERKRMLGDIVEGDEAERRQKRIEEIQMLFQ

His-KlRad5 = target: T2, His-KlRad5 (Kluyveromyces lactis, UniProt Q6CJM4 163-1114); experiment: fluorescence polarization; FP: 20 mM Tris pH 7.5, 50 mM (dsDNA, KlHIRAN) or 70 mM (ssDNA) NaCl, 2 mM MgCl2, 1 nM DNA, room temp; EMSA: 20 mM Tris pH 7.5, 100 mM KCl, 0.5 mM DTT, 3% glycerol, 2 mM MgCl2, 250 ug/mL BSA, 4 C; pull-down: 20 mM Tris pH 7.5, 50 mM NaCl, 4 C; conditions: protein: recombinant; tags: N-terminal His6; label: 5'-FAM; blunt
T2 sequence: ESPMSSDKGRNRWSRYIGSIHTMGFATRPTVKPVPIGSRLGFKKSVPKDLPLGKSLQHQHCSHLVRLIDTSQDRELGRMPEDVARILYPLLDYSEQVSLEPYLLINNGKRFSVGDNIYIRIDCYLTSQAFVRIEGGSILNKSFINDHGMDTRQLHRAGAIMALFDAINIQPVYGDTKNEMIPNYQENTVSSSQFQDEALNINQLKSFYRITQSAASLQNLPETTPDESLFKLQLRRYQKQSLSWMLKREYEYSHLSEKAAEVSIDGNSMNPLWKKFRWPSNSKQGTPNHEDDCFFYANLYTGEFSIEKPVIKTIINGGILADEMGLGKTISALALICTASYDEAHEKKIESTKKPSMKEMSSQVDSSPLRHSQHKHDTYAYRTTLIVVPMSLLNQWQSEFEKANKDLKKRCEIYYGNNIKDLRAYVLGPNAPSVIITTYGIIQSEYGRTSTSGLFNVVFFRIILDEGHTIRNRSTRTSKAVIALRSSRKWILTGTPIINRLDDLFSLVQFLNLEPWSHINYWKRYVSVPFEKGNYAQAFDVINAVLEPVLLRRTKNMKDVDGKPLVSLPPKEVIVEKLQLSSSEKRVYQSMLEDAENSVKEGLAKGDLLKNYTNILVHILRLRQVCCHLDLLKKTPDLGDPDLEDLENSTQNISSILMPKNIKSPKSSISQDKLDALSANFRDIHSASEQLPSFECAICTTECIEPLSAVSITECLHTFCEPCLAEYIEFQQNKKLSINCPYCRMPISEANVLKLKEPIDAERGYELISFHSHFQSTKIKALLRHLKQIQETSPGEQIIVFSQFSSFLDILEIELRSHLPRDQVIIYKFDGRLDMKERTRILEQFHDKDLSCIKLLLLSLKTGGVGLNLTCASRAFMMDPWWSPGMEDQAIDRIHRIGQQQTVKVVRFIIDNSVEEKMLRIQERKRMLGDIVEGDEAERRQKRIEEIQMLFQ

KlHIRAN = target: T3, KlHIRAN (Kluyveromyces lactis, UniProt Q6CJM4 174-341); experiment: fluorescence polarization; 50 mM NaCl; stronger than blunt dsDNA; FP: 20 mM Tris pH 7.5, 50 mM (dsDNA, KlHIRAN) or 70 mM (ssDNA) NaCl, 2 mM MgCl2, 1 nM DNA, room temp; EMSA: 20 mM Tris pH 7.5, 100 mM KCl, 0.5 mM DTT, 3% glycerol, 2 mM MgCl2, 250 ug/mL BSA, 4 C; pull-down: 20 mM Tris pH 7.5, 50 mM NaCl, 4 C; conditions: protein: recombinant, tags: intein-CBD cleaved off
T3 sequence: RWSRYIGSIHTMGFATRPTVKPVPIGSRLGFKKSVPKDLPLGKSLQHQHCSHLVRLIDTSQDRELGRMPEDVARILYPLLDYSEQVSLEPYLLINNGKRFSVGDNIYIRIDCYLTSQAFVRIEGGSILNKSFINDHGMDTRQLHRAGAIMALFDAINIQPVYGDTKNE

KlRad5 [2] = target: T1, KlRad5; experiment: pull-down; 50 mM NaCl; FP: 20 mM Tris pH 7.5, 50 mM (dsDNA, KlHIRAN) or 70 mM (ssDNA) NaCl, 2 mM MgCl2, 1 nM DNA, room temp; EMSA: 20 mM Tris pH 7.5, 100 mM KCl, 0.5 mM DTT, 3% glycerol, 2 mM MgCl2, 250 ug/mL BSA, 4 C; pull-down: 20 mM Tris pH 7.5, 50 mM NaCl, 4 C; conditions: protein: recombinant; tags: none; label: 5'-biotin; blunt, self-annealing, 2 copies of D1
KlRad5 [3] = target: T1, KlRad5; experiment: hydrogen-deuterium exchange MS; 200 mM NaCl; protection of 548-554, 684-700, 1039-1049, 1081-1092; FP: 20 mM Tris pH 7.5, 50 mM (dsDNA, KlHIRAN) or 70 mM (ssDNA) NaCl, 2 mM MgCl2, 1 nM DNA, room temp; EMSA: 20 mM Tris pH 7.5, 100 mM KCl, 0.5 mM DTT, 3% glycerol, 2 mM MgCl2, 250 ug/mL BSA, 4 C; pull-down: 20 mM Tris pH 7.5, 50 mM NaCl, 4 C; conditions: protein: recombinant; tags: none; blunt, self-annealing, 2 copies of D1

B1: D2a/D2b dsDNA (dsDNA)
DNA 1: ACCAGTGCCAGTGAT
DNA 2: ATCACTGGCACTGGT
KlRad5 [1]
  binding result: binds
His-KlRad5
  binding result: binds

## CAACGTCATAGACGATTACATTGCTACATGGAGCTGTCTAGAGGATCCGA (ssDNA) [D3a ssDNA]
KlHIRAN; label: 5'-FAM
  binding result: binds

B2: D3a/D3d 3'-overhang dsDNA (dsDNA)
DNA 1: CAACGTCATAGACGATTACATTGCTACATGGAGCTGTCTAGAGGATCCGA
DNA 2: AGCAATGTAATCGTCTATGACGTTG
KlHIRAN; label: 3'-FAM on D3a, 3' overhang 25 nt (D3a)
  binding result: binds

B3: D3a/D3c 5'-overhang dsDNA (dsDNA)
DNA 1: CAACGTCATAGACGATTACATTGCTACATGGAGCTGTCTAGAGGATCCGA
DNA 2: TCGGATCCTCTAGACAGCTCCATGT
KlHIRAN; label: 5'-FAM on D3a, 5' overhang 25 nt (D3a)
  binding result: binds

B4: D1 dsDNA, 5'-biotin (dsDNA)
DNA 1: TCGGATCCTCTAGACAGCTCCATGCATGGAGCTGTCTAGAGGATCCGA
DNA 2: TCGGATCCTCTAGACAGCTCCATGCATGGAGCTGTCTAGAGGATCCGA
KlRad5 [2]
  binding result: binds

B5: D1 dsDNA, unlabelled (dsDNA)
DNA 1: TCGGATCCTCTAGACAGCTCCATGCATGGAGCTGTCTAGAGGATCCGA
DNA 2: TCGGATCCTCTAGACAGCTCCATGCATGGAGCTGTCTAGAGGATCCGA
KlRad5 [3]
  binding result: binds
